Source: article PMC7031110 (Cell, 2014)

Molecular target: CaMKIIα (UniProt P11275 1-478)
Assay: fluorescence polarisation

CaMKIIα, sequence (P11275 whole entry): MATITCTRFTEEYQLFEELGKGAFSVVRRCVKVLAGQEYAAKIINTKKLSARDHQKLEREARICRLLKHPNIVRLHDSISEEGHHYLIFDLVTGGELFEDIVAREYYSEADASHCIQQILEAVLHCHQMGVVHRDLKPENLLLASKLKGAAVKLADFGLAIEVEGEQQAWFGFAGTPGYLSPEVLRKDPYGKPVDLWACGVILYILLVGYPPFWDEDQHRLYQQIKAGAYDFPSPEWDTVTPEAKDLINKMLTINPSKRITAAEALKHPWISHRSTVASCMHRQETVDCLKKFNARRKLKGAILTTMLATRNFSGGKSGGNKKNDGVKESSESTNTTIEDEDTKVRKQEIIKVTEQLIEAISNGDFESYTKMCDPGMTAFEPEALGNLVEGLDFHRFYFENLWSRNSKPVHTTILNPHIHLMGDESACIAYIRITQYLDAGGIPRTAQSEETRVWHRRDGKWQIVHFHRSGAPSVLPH

- Kd: 31 ± 7 nM
Binder: TVGKFYATFLIQEYFR [IQ peptide TVGKFYATFLIQEYFR of Cav1.2/Cav1.3]
